# From patent USRE47150 (Bayer, dated 2018)
# Residue numbers refer to the chain shown, from its start. In names and notes the source's numbering stands.
# T1: human tissue factor pathway inhibitor (TFPI) (human, UniProt P10646 29-304, limits assumed)
# T1 construct: bought; also called hTFPI; human TFPI
# T1 sequence (looked up): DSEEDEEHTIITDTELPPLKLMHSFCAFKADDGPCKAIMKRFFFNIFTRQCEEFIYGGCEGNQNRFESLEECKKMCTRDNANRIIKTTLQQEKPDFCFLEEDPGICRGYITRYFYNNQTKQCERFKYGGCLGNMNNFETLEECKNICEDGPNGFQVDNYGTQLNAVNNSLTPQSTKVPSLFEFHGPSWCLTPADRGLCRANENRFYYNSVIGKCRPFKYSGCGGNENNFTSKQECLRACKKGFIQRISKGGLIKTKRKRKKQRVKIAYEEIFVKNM
# T2: mouse tissue factor pathway inhibitor (TFPI) (mouse, UniProt O54819 29-289, limits assumed)
# T2 construct: bought; also called mTFPI; murine TFPI
# T2 sequence (looked up): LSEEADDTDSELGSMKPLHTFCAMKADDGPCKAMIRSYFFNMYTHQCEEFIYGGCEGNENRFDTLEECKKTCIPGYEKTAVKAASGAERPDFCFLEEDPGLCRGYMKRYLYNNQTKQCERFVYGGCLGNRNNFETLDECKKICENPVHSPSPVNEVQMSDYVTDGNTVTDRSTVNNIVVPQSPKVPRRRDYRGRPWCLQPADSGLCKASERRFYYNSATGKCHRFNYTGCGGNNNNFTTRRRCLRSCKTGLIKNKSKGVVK
# B1: 2A8 HC S31V+I51D+S54F+K99V/LC Y48F+N51V (Fab, V domains shown)
# VH: QVQLVESGGGLVQPGGSLRLSCAASGFTFRVYGMSWVRQAPGKGLEWVSSDRGFSSSTYYADSVKGRFTISRDNSKNTLYLQMNSLRAEDTAVYYCARVYRYWFDYWGQGTLVTVSS
# VL: DIELTQPPSVSVAPGQTARISCSGDNLRNYYAHWYQQKPGQAPVVVIFYDVNRPSGIPERFSGSNSGNTATLTISGTQAEDEADYYCQSWDDGVPVFGGGTKLTVLG
# B2: 2A8 HC S35D+R52S+S55R+K99L/LC Y48F+N51V+D91W (Fab, V domains shown)
# VH: B1 VH with V31S, S35D, D51I, R52S, F54S, S55R, V99L
# VL: B1 VL with D91W
# B3: 2A8 HC S31V+K99V/LC N51V+D91W (Fab, V domains shown)
# VH: B1 VH with D51I, F54S
# VL: B1 VL with F48Y, D91W
# B4: 2A8 HC S31V+S35L+I51D+S54F+K99V/LC N51V+D91K (Fab, V domains shown)
# VH: B1 VH with S35L
# VL: B1 VL with F48Y, D91K
# B5: 2A8 HC S31V+S35D+S54F/LC Y48F+D91L+V96W (Fab, V domains shown)
# VH: B1 VH with S35D, D51I, V99K
# VL: B1 VL with V51N, D91L, V96W
# B6: 2A8 HC S35D+K99L/LC D91L+V96W (Fab, V domains shown)
# VH: B1 VH with V31S, S35D, D51I, F54S, V99L
# VL: B1 VL with F48Y, V51N, D91L, V96W
# B7: 2A8 HC S35D+I51D+K99L/LC Y48F+D91W (Fab, V domains shown)
# VH: B1 VH with V31S, S35D, F54S, V99L
# VL: B1 VL with V51N, D91W
# B8: 2A8 HC S35D+K99L/LC unchanged (Fab, V domains shown)
# VH: B1 VH with V31S, S35D, D51I, F54S, V99L
# VL: B1 VL with F48Y, V51N
# B9: 2A8 HC S31V+I51E+S55R+K99V/LC Y48F+D91L+V96W (Fab, V domains shown)
# VH: B1 VH with D51E, F54S, S55R
# VL: B1 VL with V51N, D91L, V96W
# B10: 2A8 HC S35D+S50A+K99L/LC Y48F+D91L+V96W (Fab, V domains shown)
# VH: B1 VH with V31S, S35D, S50A, D51I, F54S, V99L
# VL: B1 VL with V51N, D91L, V96W
# B11: 2A8 HC S31V+I51D+S55R+K99L/LC Y48F+N52G+D91L+V96W (Fab, V domains shown)
# VH: B1 VH with F54S, S55R, V99L
# VL: B1 VL with V51N, N52G, D91L, V96W
# B12: 2A8 HC S31V+S54F+K99L/LC N51V (Fab, V domains shown)
# VH: B1 VH with D51I, V99L
# VL: B1 VL with F48Y
# B13: 2A8 HC S31V+I51D+S55R+S56G+K99V/LC Y48F+D91L+V96W (Fab, V domains shown)
# VH: B1 VH with F54S, S55R, S56G
# VL: B1 VL with V51N, D91L, V96W
# B14: 2A8 HC S35D+S54F+S55R+K99L/LC D91L+V96W (Fab, V domains shown)
# VH: B1 VH with V31S, S35D, D51I, S55R, V99L
# VL: B1 VL with F48Y, V51N, D91L, V96W
# B15: 2A8 HC S35D+I51E+S55R+K99L/LC Y48F+N51V+D91L+V96W (Fab, V domains shown)
# VH: B1 VH with V31S, S35D, D51E, F54S, S55R, V99L
# VL: B1 VL with D91L, V96W
# B16: 2A8 HC S35D+K99L/LC Y48F+D91L+G93S+V96W (Fab, V domains shown)
# VH: B1 VH with V31S, S35D, D51I, F54S, V99L
# VL: B1 VL with V51N, D91L, G93S, V96W
# B17: 2A8 HC S31V+S50A+I51D+S55R+K99V/LC Y48F+D91L+V96W (Fab, V domains shown)
# VH: B1 VH with S50A, F54S, S55R
# VL: B1 VL with V51N, D91L, V96W
# B18: 2A8 HC S35D+K99L/LC Y48F+S89A+D91L+V96W (Fab, V domains shown)
# VH: B1 VH with V31S, S35D, D51I, F54S, V99L
# VL: B1 VL with V51N, S89A, D91L, V96W
# B19: 2A8 HC S35D+K99L/LC Y48F+N51S+D91L+V96W (Fab, V domains shown)
# VH: B1 VH with V31S, S35D, D51I, F54S, V99L
# VL: B1 VL with V51S, D91L, V96W
# B20: 2A8 HC S31V+S35L+I51E+S54F+K99V/LC N51V+D91K (Fab, V domains shown)
# VH: B1 VH with S35L, D51E
# VL: B1 VL with F48Y, D91K
# B21: 2A8 HC S31V+S35D/LC Y48F+N51V (Fab, V domains shown)
# VH: B1 VH with S35D, D51I, F54S, V99K
# VL: B1 VL
# B22: 2A8 HC S35D+S50A+S55R+K99L/LC Y48F+N51V+D91W (Fab, V domains shown)
# VH: B1 VH with V31S, S35D, S50A, D51I, F54S, S55R, V99L
# VL: B1 VL with D91W
# B23: 2A8 HC S35D+K99L/LC Y48F+D91L+P95V+V96W (Fab, V domains shown)
# VH: B1 VH with V31S, S35D, D51I, F54S, V99L
# VL: B1 VL with V51N, D91L, P95V, V96W
# B24: 2A8 HC S35D+K99L/LC Y48F+D91L+D92S+V96W (Fab, V domains shown)
# VH: B1 VH with V31S, S35D, D51I, F54S, V99L
# VL: B1 VL with V51N, D91L, D92S, V96W
# B25: 2A8 HC S35D+R52S+K99L/LC Y48F+D91L+V96W (Fab, V domains shown)
# VH: B1 VH with V31S, S35D, D51I, R52S, F54S, V99L
# VL: B1 VL with V51N, D91L, V96W
# B26: 2A8 HC S31V+S35D+I51D+K99V/LC Y48F+D91K (Fab, V domains shown)
# VH: B1 VH with S35D, F54S
# VL: B1 VL with V51N, D91K
# B27: 2A8 HC S31V+S35D+S55R/LC Y48F+N51V+D91L+V96W (Fab, V domains shown)
# VH: B1 VH with S35D, D51I, F54S, S55R, V99K
# VL: B1 VL with D91L, V96W
# B28: 2A8 HC S31V+I51D+S55R/LC Y48F+N51V+D91L (Fab, V domains shown)
# VH: B1 VH with F54S, S55R, V99K
# VL: B1 VL with D91L
# B29: 2A8 HC S35D+K99L/LC Y48F+D91L+V94T+V96W (Fab, V domains shown)
# VH: B1 VH with V31S, S35D, D51I, F54S, V99L
# VL: B1 VL with V51N, D91L, V94T, V96W
# B30: 2A8 HC S35D+I51D+S55R+K99V/LC Y48F+N51V (Fab, V domains shown)
# VH: B1 VH with V31S, S35D, F54S, S55R
# VL: B1 VL
# Molecular target: T1, human tissue factor pathway inhibitor …
# Assay: competitive ELISA
row,variant/HC_K99L,Binder
1,8.1 ratio,B1
2,10.1 ratio,B2
3,6.7 ratio,B3
4,8.6 ratio,B4
5,5.4 ratio,B5
6,7.1 ratio,B6
7,0.8 ratio,B7
8,3.9 ratio,B8
9,9.2 ratio,B9
10,4 ratio,B10
11,0.4 ratio,B11
12,16.3 ratio,B12
13,16.2 ratio,B13
14,14.9 ratio,B14
15,10.4 ratio,B15
16,14.2 ratio,B16
17,16.6 ratio,B17
18,4.4 ratio,B18
19,19.9 ratio,B19
20,4.9 ratio,B20
21,7.5 ratio,B21
22,10.9 ratio,B22
23,10.2 ratio,B23
24,20.7 ratio,B24
25,3.9 ratio,B25
26,0.6 ratio,B26
27,8.7 ratio,B27
28,8.4 ratio,B28
29,18.6 ratio,B29
30,8 ratio,B30

# Molecular target: T2, mouse tissue factor pathway inhibitor …
# Assay: competitive ELISA
row,variant/HC_K99L,Binder
1,2.2 ratio,B1
2,7.9 ratio,B2
3,5.6 ratio,B3
4,8.2 ratio,B4
5,4.2 ratio,B5
6,5.4 ratio,B6
7,0.2 ratio,B7
8,4.5 ratio,B8
9,7 ratio,B9
10,4.6 ratio,B10
11,0.1 ratio,B11
12,15.7 ratio,B12
13,12.1 ratio,B13
14,12.1 ratio,B14
15,8 ratio,B15
16,15.6 ratio,B16
17,9.3 ratio,B17
18,6.1 ratio,B18
19,20.3 ratio,B19
20,3.9 ratio,B20
21,7.2 ratio,B21
22,12.6 ratio,B22
23,13.6 ratio,B23
24,20.5 ratio,B24
25,3 ratio,B25
26,0.1 ratio,B26
27,8.2 ratio,B27
28,6.5 ratio,B28
29,19.3 ratio,B29
30,2.7 ratio,B30
